Target: Cholecystokinin type B receptor (mouse (endogenous in DRG)) (UniProt P56481)
UniProt P56481, sequence (P56481 whole entry): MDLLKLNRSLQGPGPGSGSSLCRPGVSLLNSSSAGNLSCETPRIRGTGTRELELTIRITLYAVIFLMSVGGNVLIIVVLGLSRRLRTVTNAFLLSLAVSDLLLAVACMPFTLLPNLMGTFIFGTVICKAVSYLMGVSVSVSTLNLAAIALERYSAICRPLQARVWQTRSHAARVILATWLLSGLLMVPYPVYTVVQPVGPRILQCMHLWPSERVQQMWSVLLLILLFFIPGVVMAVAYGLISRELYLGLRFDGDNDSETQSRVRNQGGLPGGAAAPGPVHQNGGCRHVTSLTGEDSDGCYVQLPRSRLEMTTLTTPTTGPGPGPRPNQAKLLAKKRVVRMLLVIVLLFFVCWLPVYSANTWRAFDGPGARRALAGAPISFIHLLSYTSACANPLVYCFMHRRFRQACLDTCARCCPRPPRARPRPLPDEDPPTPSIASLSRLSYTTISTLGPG

CCK-4 (peptide)
percent decrease of A-type K+ current (IA) in small-sized mouse DRG neurons at 300 nM CCK-4: 32.2%

— PMC6582535
